This data set relates to ATP. As to the kind of experiment: switch fluorescence ratio, 500 uM ATP over buffer (Cy3 cluster intensity, sum of 5 cycles each) (fold (ratio)); higher = stronger signal-on switching upon ATP binding; sequences stand for … in TCGTCGGCAGCGTCAGATGTGTATAAGAGACAGTTTTTTTTTTTTTTTTTTTTTTTTT…TC. To be noted: aptamer strand: ATP DNA aptamer (quencher-CACCTGGGGGAGTATTGCGGAGGAAGG + anchor), 100 nM annealed; ATP concentration: 500 uM. The gist of the method: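 Imaging in selection buffer was followed by imaging after 15 min with 500 uM ATP at 22 °C, for Cy3-labelled switching-strand clusters annealed to 100 nM quencher-labelled ATP aptamer on a modified Illumina MiSeq flow-cell. Five of these buffer/ATP cycles ran, separated by NaOH stripping and re-annealing. The fluorescence ratio per cluster is summed target-cycle over summed buffer-cycle Cy3 intensity, averaged per switch-domain sequence; clusters outside 100-1000 RFU were removed.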

In the supplement of paper PMC10126150 one finds switch fluorescence ratio data, which are given here for 78 sequences.

± gives the standard deviation of the averaged measurements.
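Further: ATP exposure 15 min at 22 °C before imaging.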

GAAAGGGTTG: the switch fluorescence ratio was determined as 0.968 ± 0.035.

Consider CATGGTGTGG, for which the switch fluorescence ratio amounted to 1.01 ± 0.031.

With AGGTGACGGT, the switch fluorescence ratio worked out at 0.9809 ± 0.0085.

As for ACACCTGAGT, the switch fluorescence ratio stood at 1.16 ± 0.011.

GCCAGATAGG: the switch fluorescence ratio turned out to be 0.9562 ± 0.0088.

TTTATACCGA: the switch fluorescence ratio is 1.067 ± 0.004.

In the case of GAGGTTTGGG, the switch fluorescence ratio stood at 0.982 ± 0.035.

Consider ATGTTCGTAG, for which the switch fluorescence ratio is 0.989 ± 0.015.

Turning to TCTTTTTGGA, the switch fluorescence ratio was determined as 1.017 ± 0.0079.

As to ATTGCGGTCA, the switch fluorescence ratio is 1.01 ± 0.048.

Consider ATTGTTCTCC, for which the switch fluorescence ratio came out at 1.04 ± 0.057.

Regarding CTTTCTTG, the switch fluorescence ratio amounted to 1.01 ± 0.043.

With TCAAAACTGT, the switch fluorescence ratio came out at 1.07 ± 0.067.

In the case of ACCAGTGAGT, the switch fluorescence ratio was found to be 0.969 ± 0.011.

TCCTTTTAAC: the switch fluorescence ratio worked out at 1.25 ± 0.085.

For TTTTGAAAAG, the switch fluorescence ratio amounted to 1.01 ± 0.019.

For GAAGCATAAT, the switch fluorescence ratio stood at 1.27 ± 0.12.

TTTATCCGCC: the switch fluorescence ratio stood at 1.77 ± 0.21.

On to TTTTGATGG, for which the switch fluorescence ratio was determined as 0.995 ± 0.036.

On to GTATTAGAAG, for which the switch fluorescence ratio amounted to 0.975 ± 0.047.

In the case of TTTGTTAATT, the switch fluorescence ratio came to 0.996 ± 0.039.

For ATTGGGCGAG, the switch fluorescence ratio is 0.993 ± 0.013.

Consider ATTTGTTTAT, for which the switch fluorescence ratio was 1.09 ± 0.17.

For GTAGTGGGGG, the switch fluorescence ratio amounted to 0.975 ± 0.027.

For the sequence ATAAATGTTA, the switch fluorescence ratio worked out at 0.999 ± 0.011.

In the case of CAGGTTTTTG, the switch fluorescence ratio stood at 0.983 ± 0.028.

Consider AATGTGCGGG, for which the switch fluorescence ratio worked out at 0.963 ± 0.042.

For AATTTGTGGA, the switch fluorescence ratio turned out to be 0.9855 ± 0.007.

TCCCACGGCC: the switch fluorescence ratio was 1.083 ± 0.0017.

On to TCCGTCGGGG, for which the switch fluorescence ratio came out at 1.01 ± 0.033.

For AGTACGGATA, the switch fluorescence ratio came out at 1.03 ± 0.074.

As to GACCCGATTA, the switch fluorescence ratio is 1.02 ± 0.034.

For the sequence AGCGACGGAG, the switch fluorescence ratio is 0.966 ± 0.024.

In the case of GAGCGAAAGG, the switch fluorescence ratio is 0.991 ± 0.025.

Consider GGTCCTACTG, for which the switch fluorescence ratio was determined as 1.01 ± 0.017.

Turning to GAGCTGCGGG, the switch fluorescence ratio amounted to 1.002 ± 0.0021.

With ATGGGTGCCT, the switch fluorescence ratio turned out to be 1.03 ± 0.023.

For the sequence TTGAGGGTAA, the switch fluorescence ratio was 0.99263 ± 0.00084.

On to CGTGGGGAGG, for which the switch fluorescence ratio amounted to 1.05 ± 0.017.

Regarding GGAGTTAAGT, the switch fluorescence ratio stood at 0.987 ± 0.043.

As for AACCAGAAAT, the switch fluorescence ratio was 0.992 ± 0.01.

In the case of GGCCCCTTTT, the switch fluorescence ratio was determined as 1.021 ± 0.0053.

Take AGATGAGGGC: the switch fluorescence ratio came out at 1.04 ± 0.022.

Consider GCGATCAGAC, for which the switch fluorescence ratio was determined as 1.15 ± 0.015.

As for GGGGGGATAA, the switch fluorescence ratio was found to be 1.08 ± 0.21.

On to ATTAAAAGGT, for which the switch fluorescence ratio came out at 1 ± 0.026.

Take AAGCGTCTGG: the switch fluorescence ratio was found to be 1.02 ± 0.024.

As to GGGCTAGAGG, the switch fluorescence ratio worked out at 0.974 ± 0.022.

As for TTTTGGTCTC, the switch fluorescence ratio came to 0.985 ± 0.036.

For GCAATATGCA, the switch fluorescence ratio stood at 1.03 ± 0.05.

As to TTTTTAGTTC, the switch fluorescence ratio came out at 0.98 ± 0.027.

Consider CTTCAGGGGA, for which the switch fluorescence ratio turned out to be 1.01 ± 0.061.

As for TGTAAGAGAT, the switch fluorescence ratio was found to be 1.01 ± 0.011.

Turning to AATAAATTAA, the switch fluorescence ratio was found to be 0.977 ± 0.031.

With AACAGTGAAA, the switch fluorescence ratio amounted to 1.02 ± 0.02.

CGTAACGTGG: the switch fluorescence ratio turned out to be 0.9938 ± 0.0078.

As to GGGACAGGTA, the switch fluorescence ratio was 1.02 ± 0.022.

Turning to GATGTATATT, the switch fluorescence ratio was found to be 1.002 ± 0.004.

Consider CAGTTCTGGG, for which the switch fluorescence ratio stood at 0.9872 ± 0.0097.

Take TATGTACTAG: the switch fluorescence ratio amounted to 1.049 ± 0.0089.

Take TTGACGAAGG: the switch fluorescence ratio stood at 0.95 ± 0.026.

On to TTATATCCGT, for which the switch fluorescence ratio was 1.01 ± 0.031.

ATATTTGCGT: the switch fluorescence ratio is 0.974 ± 0.021.

For CCTTGCGGGA, the switch fluorescence ratio stood at 1.06 ± 0.011.

Turning to GACTGCTGTG, the switch fluorescence ratio was found to be 1.012 ± 0.0085.

With TACTCGAGTT, the switch fluorescence ratio came to 0.977 ± 0.015.

For TTCGTAGACT, the switch fluorescence ratio was 0.991 ± 0.017.

Consider GGTATACTGT, for which the switch fluorescence ratio is 0.975 ± 0.029.

As for TAAACGGGCG, the switch fluorescence ratio amounted to 0.983 ± 0.019.

For the sequence CGTTGGCACG, the switch fluorescence ratio worked out at 0.997 ± 0.04.

For TTTGGGGGTT, the switch fluorescence ratio worked out at 1.01 ± 0.039.

For the sequence AGGGAATAGC, the switch fluorescence ratio turned out to be 1.01 ± 0.011.

In the case of CATCGAGCAA, the switch fluorescence ratio was found to be 3.77 ± 3.5.

For the sequence AGGTTTGCGT, the switch fluorescence ratio was found to be 1.01 ± 0.021.

For the sequence GCATTTGGCT, the switch fluorescence ratio came out at 1.027 ± 0.0064.

As to TTGGGGCAAC, the switch fluorescence ratio came out at 1.03 ± 0.047.

With CTTTTAGGCT, the switch fluorescence ratio stood at 1.02 ± 0.092.

Consider GTTATTATGC, for which the switch fluorescence ratio was 0.952 ± 0.035.
